# Assay results reported in the supplement of paper PMC9112550, “Optimization of the antimicrobial peptide Bac7 by deep mutational scanning” (BMC Biology, 2022).
# Test system: Escherichia coli TOP10
# Test: shrunken log2 fold change of peptide-encoding DNA abundance (4.5 h post-induction vs induction); higher = less antimicrobial activity (less host growth inhibition)
# Conditions: time post-induction: 4.5 h; library: site-saturation at positions 5, 18, 19, 20
# 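Further: peptides expressed intracellularly from a pBAD plasmid library in pooled LB shake-flask culture, induced with 0.3% L-arabinose, DNA abundance read by NGS, three biological replicates, DESeq2 with apeglm shrinkage.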
row,Sequence,shrunken log2 fold change
1,RRIRIRPPRLPRPRPRPMYRPRP,-0.0946
2,RRIRYRPPRLPRPRPRPIHLPRP,-1.26
3,RRIRGRPPRLPRPRPRPCQAPRP,-0.0272
4,RRIRLRPPRLPRPRPRPVRHPRP,0.19
5,RRIRQRPPRLPRPRPRPAQAPRP,0.0255
6,RRIRVRPPRLPRPRPRPDFNPRP,-0.344
7,RRIRARPPRLPRPRPRPCETPRP,0.00546
8,RRIRARPPRLPRPRPRPWTGPRP,0.00192
9,RRIRPRPPRLPRPRPRPQIRPRP,-0.207
10,RRIRVRPPRLPRPRPRPYSQPRP,0.0117
11,RRIRHRPPRLPRPRPRPDIDPRP,-0.235
12,RRIRPRPPRLPRPRPRPICNPRP,-0.367
13,RRIRGRPPRLPRPRPRPNDGPRP,0.0995
14,RRIRFRPPRLPRPRPRPGFRPRP,0.0855
15,RRIRLRPPRLPRPRPRPIFHPRP,-0.192
16,RRIRGRPPRLPRPRPRPNENPRP,0.931
17,RRIRVRPPRLPRPRPRPMIWPRP,-0.179
18,RRIRMRPPRLPRPRPRPGDCPRP,0.548
19,RRIRHRPPRLPRPRPRPQVMPRP,-0.0437
20,RRIRHRPPRLPRPRPRPVIRPRP,0.00766
21,RRIRIRPPRLPRPRPRPIDMPRP,-0.0681
22,RRIRSRPPRLPRPRPRPGKHPRP,0.0205
23,RRIRWRPPRLPRPRPRPYTRPRP,-0.774

row,Sequence,shrunken log2 fold change
1,RRIRIRPPRLPRPRPRPTLDPRP,1.36
2,RRIRVRPPRLPRPRPRPGILPRP,-0.466
3,RRIRRRPPRLPRPRPRPGLIPRP,0.238
4,RRIRRRPPRLPRPRPRPQPWPRP,0.067
5,RRIRIRPPRLPRPRPRPMVTPRP,-0.018
6,RRIRKRPPRLPRPRPRPLMQPRP,-0.134
7,RRIRMRPPRLPRPRPRPAEGPRP,0.265
8,RRIRGRPPRLPRPRPRPFNQPRP,-0.28
9,RRIRSRPPRLPRPRPRPQPSPRP,0.296
10,RRIRCRPPRLPRPRPRPDHPPRP,0.264
11,RRIRMRPPRLPRPRPRPFVDPRP,-0.338
12,RRIRFRPPRLPRPRPRPLKVPRP,-0.112
13,RRIRGRPPRLPRPRPRPWNPPRP,-0.448
14,RRIRYRPPRLPRPRPRPEIMPRP,-0.272
15,RRIRRRPPRLPRPRPRPWVMPRP,-0.123
16,RRIRRRPPRLPRPRPRPSFSPRP,-0.411
17,RRIRGRPPRLPRPRPRPSPYPRP,-0.148
18,RRIRHRPPRLPRPRPRPITHPRP,-0.23
19,RRIRGRPPRLPRPRPRPLFLPRP,0.0673
20,RRIRWRPPRLPRPRPRPKVNPRP,0.175
21,RRIRQRPPRLPRPRPRPCWIPRP,-0.209
22,RRIRTRPPRLPRPRPRPANMPRP,-0.291
23,RRIRFRPPRLPRPRPRPNTRPRP,-0.39

row,Sequence,shrunken log2 fold change
1,RRIRWRPPRLPRPRPRPNTPPRP,0.144
2,RRIRLRPPRLPRPRPRPMPAPRP,0.221
3,RRIRLRPPRLPRPRPRPNVFPRP,-0.301
4,RRIRCRPPRLPRPRPRPMNLPRP,-0.538
5,RRIRPRPPRLPRPRPRPDACPRP,0.183
6,RRIRARPPRLPRPRPRPWQLPRP,-0.106
7,RRIRERPPRLPRPRPRPGLCPRP,0.00687
8,RRIRSRPPRLPRPRPRPDTAPRP,-0.0215
9,RRIRERPPRLPRPRPRPIPTPRP,0.0239
10,RRIRVRPPRLPRPRPRPGGHPRP,0.13
11,RRIRGRPPRLPRPRPRPMMNPRP,0.159
12,RRIRHRPPRLPRPRPRPDWMPRP,-0.222
13,RRIRFRPPRLPRPRPRPMLNPRP,-0.574
14,RRIRDRPPRLPRPRPRPLHNPRP,-0.338
15,RRIRIRPPRLPRPRPRPALTPRP,0.0227
16,RRIRRRPPRLPRPRPRPEFIPRP,-0.0197
17,RRIRWRPPRLPRPRPRPTHQPRP,-0.0304
18,RRIRMRPPRLPRPRPRPHLKPRP,0.253
19,RRIRSRPPRLPRPRPRPEYRPRP,0.2
20,RRIRLRPPRLPRPRPRPVRRPRP,0.276
21,RRIRMRPPRLPRPRPRPTDYPRP,0.166
22,RRIRMRPPRLPRPRPRPISYPRP,-0.0167
23,RRIRPRPPRLPRPRPRPEPFPRP,0.454

row,Sequence,shrunken log2 fold change
1,RRIRFRPPRLPRPRPRPEKAPRP,0.0584
2,RRIRSRPPRLPRPRPRPTMKPRP,-0.128
3,RRIRTRPPRLPRPRPRPTVFPRP,-0.14
4,RRIRMRPPRLPRPRPRPRFFPRP,0.286
5,RRIRFRPPRLPRPRPRPQTHPRP,-0.151
6,RRIRFRPPRLPRPRPRPWLVPRP,-0.135
7,RRIRGRPPRLPRPRPRPQMIPRP,1.83
8,RRIRERPPRLPRPRPRPFNNPRP,-0.39
9,RRIRTRPPRLPRPRPRPDQVPRP,-0.272
10,RRIRFRPPRLPRPRPRPGYPPRP,0.0384
11,RRIRHRPPRLPRPRPRPCVPPRP,-0.00981
12,RRIRSRPPRLPRPRPRPTNWPRP,0.0446
13,RRIRIRPPRLPRPRPRPCIHPRP,-0.488
14,RRIRDRPPRLPRPRPRPIPQPRP,-0.0127
15,RRIRGRPPRLPRPRPRPTQGPRP,1.14
16,RRIRWRPPRLPRPRPRPFHEPRP,-0.0657
17,RRIRDRPPRLPRPRPRPDVIPRP,0.00273
18,RRIRRRPPRLPRPRPRPQQRPRP,0.795
19,RRIRLRPPRLPRPRPRPLRVPRP,0.4
20,RRIRSRPPRLPRPRPRPYMPPRP,-1.04
21,RRIRPRPPRLPRPRPRPCDQPRP,-0.758
22,RRIRNRPPRLPRPRPRPNMPPRP,-0.407
